T1: monomeric C-reactive protein (CRP) (UniProt P02741 19-224)
T1 sequence (looked up): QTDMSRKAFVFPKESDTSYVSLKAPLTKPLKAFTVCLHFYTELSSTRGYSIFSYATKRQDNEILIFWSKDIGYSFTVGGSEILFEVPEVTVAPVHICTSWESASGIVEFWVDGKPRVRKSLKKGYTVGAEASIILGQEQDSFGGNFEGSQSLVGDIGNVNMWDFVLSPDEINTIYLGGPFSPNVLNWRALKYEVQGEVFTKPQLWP


Key:
[1] = biological target: T2, MDA-modified LDL particles; test: plate-based binding assay, His-tagged recombinant protein from HEK293 cells
T2 construct: Not a plain protein; also called MDA-LDL; MDA adducts

[2] = biological target: T1, monomeric C-reactive protein (CRP); test: rank of binding affinity among six proteins, plate-based binding assays
[3] = biological target: T2, MDA-modified LDL particles; test: as above
[4] = biological target: T2, MDA-modified LDL particles; test: relative MDA-binding assay, percent of CFH-Risk, detection antibody AbCam OX-24 (#Ab112197)
[5] = biological target: T1, monomeric C-reactive protein (CRP); test: relative CRP-binding assay, percent of CFH-Risk, detection antibody AbCam OX-24 (#Ab112197)
[6] = biological target: T1, monomeric C-reactive protein (CRP); test: relative CRP-binding assay, detection antibody AbCam OX-24 (#Ab112197)
[7] = biological target: T2, MDA-modified LDL particles; test: relative MDA-binding assay, detection antibody AbCam OX-24 (#Ab112197)

Kd [1] [µM] | Binding Affinity Rank (1 best to 6 worst) [2] [rank] | Binding Affinity Rank (1 best to 6 worst) [3] [rank] | % FH-Risk [4] [%] | % FH-Risk [5] [%] | Binding Potential [6] | Binding Potential [7] | Binder
0.29 | 1 | 3 | – | – | – | – | eCFHT-SK (engineered truncated CFH, I62-Y402, ending in SKSFTL) (other, Non-natural variant of human CFHT with SK inserted before the C-terminal SFTL; In the Western blot it was expressed from eCFH/T v4.2 in RPE1 cells; also called protective eCFHT-SK; truncated product of eCFH/T v4.2) EDCNELPPRRNTEILTGSWSDQTYPEGTQAIYKCRPGYRSLGNIIMVCRKGEWVALNPLRKCQKRPCGHPGDTPFGTFTLTGGNVFEYGVKAVYTCNEGYQLLGEINYRECDTDGWTNDIPICEVVKCLPVTAPENGKIVSSAMEPDREYHFGQAVRFVCNSGYKIEGDEEMHCSDDGFWSKEKPKCVEISCKSPDVINGSPISQKIIYKENERFQYKCNMGYEYSERGDAVCTESGWRPLPSCEEKSCDNPYIPNGDYSPLRIKHRTGDEITYQCRNGFYPATRGNTAKCTSTGWIPAPRCTLKPCDYPDIKHGGLYHENMRRPYFPVAVGKYYSYYCDEHFETPSGSYWDHIHCTQDGWSPAVPCLRKCYFPYLENGYNQNYGRKFVQGKSIDVACHPGYALPKAQTTVTCMENGWSPTPRCIRVSKSFTL
– | – | – | 94 | 6870 | 101 | 28 | CFHT-Neu/Del (truncated CFH of the neutral and deletion haplotypes, V62-Y402) (other) EDCNELPPRRNTEILTGSWSDQTYPEGTQAIYKCRPGYRSLGNVIMVCRKGEWVALNPLRKCQKRPCGHPGDTPFGTFTLTGGNVFEYGVKAVYTCNEGYQLLGEINYRECDTDGWTNDIPICEVVKCLPVTAPENGKIVSSAMEPDREYHFGQAVRFVCNSGYKIEGDEEMHCSDDGFWSKEKPKCVEISCKSPDVINGSPISQKIIYKENERFQYKCNMGYEYSERGDAVCTESGWRPLPSCEEKSCDNPYIPNGDYSPLRIKHRTGDEITYQCRNGFYPATRGNTAKCTSTGWIPAPRCTLKPCDYPDIKHGGLYHENMRRPYFPVAVGKYYSYYCDEHFETPSGSYWDHIHCTQDGWSPAVPCLRKCYFPYLENGYNQNYGRKFVQGKSIDVACHPGYALPKAQTTVTCMENGWSPTPRCIRVSFTL
– | 5 | 5 | 35 | 131 | 2 | 10 | CFHT-V62-H402 (risk variant of truncated CFH) (other, also called CFHT-Risk) EDCNELPPRRNTEILTGSWSDQTYPEGTQAIYKCRPGYRSLGNVIMVCRKGEWVALNPLRKCQKRPCGHPGDTPFGTFTLTGGNVFEYGVKAVYTCNEGYQLLGEINYRECDTDGWTNDIPICEVVKCLPVTAPENGKIVSSAMEPDREYHFGQAVRFVCNSGYKIEGDEEMHCSDDGFWSKEKPKCVEISCKSPDVINGSPISQKIIYKENERFQYKCNMGYEYSERGDAVCTESGWRPLPSCEEKSCDNPYIPNGDYSPLRIKHRTGDEITYQCRNGFYPATRGNTAKCTSTGWIPAPRCTLKPCDYPDIKHGGLYHENMRRPYFPVAVGKYYSYYCDEHFETPSGSYWDHIHCTQDGWSPAVPCLRKCYFPYLENGYNQNHGRKFVQGKSIDVACHPGYALPKAQTTVTCMENGWSPTPRCIRVSFTL
– | – | – | 145 | 972 | 14 | 43 | CFH-Del (CFH of the CFHR3/1 deletion haplotype, V62-Y402-E936) (other, also called 3,1 Deletion (Del)) EDCNELPPRRNTEILTGSWSDQTYPEGTQAIYKCRPGYRSLGNVIMVCRKGEWVALNPLRKCQKRPCGHPGDTPFGTFTLTGGNVFEYGVKAVYTCNEGYQLLGEINYRECDTDGWTNDIPICEVVKCLPVTAPENGKIVSSAMEPDREYHFGQAVRFVCNSGYKIEGDEEMHCSDDGFWSKEKPKCVEISCKSPDVINGSPISQKIIYKENERFQYKCNMGYEYSERGDAVCTESGWRPLPSCEEKSCDNPYIPNGDYSPLRIKHRTGDEITYQCRNGFYPATRGNTAKCTSTGWIPAPRCTLKPCDYPDIKHGGLYHENMRRPYFPVAVGKYYSYYCDEHFETPSGSYWDHIHCTQDGWSPAVPCLRKCYFPYLENGYNQNYGRKFVQGKSIDVACHPGYALPKAQTTVTCMENGWSPTPRCIRVKTCSKSSIDIENGFISESQYTYALKEKAKYQCKLGYVTADGETSGSITCGKDGWSAQPTCIKSCDIPVFMNARTKNDFTWFKLNDTLDYECHDGYESNTGSTTGSIVCGYNGWSDLPICYERECELPKIDVHLVPDRKKDQYKVGEVLKFSCKPGFTIVGPNSVQCYHFGLSPDLPICKEQVQSCGPPPELLNGNVKEKTKEEYGHSEVVEYYCNPRFLMKGPNKIQCVDGEWTTLPVCIVEESTCGDIPELEHGWAQLSSPPYYYGDSVEFNCSESFTMIGHRSITCIHGVWTQLPQCVAIDKLKKCKSSNLIILEEHLKNKKEFDHNSNIRYRCRGKEGWIHTVCINGRWDPEVNCSMAQIQLCPPPPQIPNSHNMTTTLNYRDGEKVSVLCQENYLIQEGEEITCKDGRWQSIPLCVEKIPCSQPPQIEHGTINSSRSSQESYAHGTKLSYTCEGGFRISEENETTCYMGKWSSPPQCEGLPCKSPPEISHGVVAHMSDSYQYGEEVTYKCFEGFGIDGPAIAKCLGEKWSHPPSCIKTDCLSLPSFENAIPMGEKKDVYKAGEQVTYTCATYYKMDGASNVTCINSRWTGRPTCRDTSCVNPPTVQNAYIVSRQMSKYPSGERVRYQCRSPYEMFGDEEVMCLNGNWTEPPQCKDSTGKCGPPPPIDNGDITSFPLSVYAPASSVEYQCQNLYQLEGNKRITCRNGQWSEPPKCLHPCVISREIMENYNIALRWTAKQKLYSRTGESVEFVCKRGYRLSSRSHTLRTTCWDGKLEYPTCAKR
– | 6 | 6 | 100 | 100 | 1 | 30 | CFH-V62-H402-E936 (risk variant of full-length CFH) (other, also called CFH-Risk; CFH-risk protein) EDCNELPPRRNTEILTGSWSDQTYPEGTQAIYKCRPGYRSLGNVIMVCRKGEWVALNPLRKCQKRPCGHPGDTPFGTFTLTGGNVFEYGVKAVYTCNEGYQLLGEINYRECDTDGWTNDIPICEVVKCLPVTAPENGKIVSSAMEPDREYHFGQAVRFVCNSGYKIEGDEEMHCSDDGFWSKEKPKCVEISCKSPDVINGSPISQKIIYKENERFQYKCNMGYEYSERGDAVCTESGWRPLPSCEEKSCDNPYIPNGDYSPLRIKHRTGDEITYQCRNGFYPATRGNTAKCTSTGWIPAPRCTLKPCDYPDIKHGGLYHENMRRPYFPVAVGKYYSYYCDEHFETPSGSYWDHIHCTQDGWSPAVPCLRKCYFPYLENGYNQNHGRKFVQGKSIDVACHPGYALPKAQTTVTCMENGWSPTPRCIRVKTCSKSSIDIENGFISESQYTYALKEKAKYQCKLGYVTADGETSGSITCGKDGWSAQPTCIKSCDIPVFMNARTKNDFTWFKLNDTLDYECHDGYESNTGSTTGSIVCGYNGWSDLPICYERECELPKIDVHLVPDRKKDQYKVGEVLKFSCKPGFTIVGPNSVQCYHFGLSPDLPICKEQVQSCGPPPELLNGNVKEKTKEEYGHSEVVEYYCNPRFLMKGPNKIQCVDGEWTTLPVCIVEESTCGDIPELEHGWAQLSSPPYYYGDSVEFNCSESFTMIGHRSITCIHGVWTQLPQCVAIDKLKKCKSSNLIILEEHLKNKKEFDHNSNIRYRCRGKEGWIHTVCINGRWDPEVNCSMAQIQLCPPPPQIPNSHNMTTTLNYRDGEKVSVLCQENYLIQEGEEITCKDGRWQSIPLCVEKIPCSQPPQIEHGTINSSRSSQESYAHGTKLSYTCEGGFRISEENETTCYMGKWSSPPQCEGLPCKSPPEISHGVVAHMSDSYQYGEEVTYKCFEGFGIDGPAIAKCLGEKWSHPPSCIKTDCLSLPSFENAIPMGEKKDVYKAGEQVTYTCATYYKMDGASNVTCINSRWTGRPTCRDTSCVNPPTVQNAYIVSRQMSKYPSGERVRYQCRSPYEMFGDEEVMCLNGNWTEPPQCKDSTGKCGPPPPIDNGDITSFPLSVYAPASSVEYQCQNLYQLEGNKRITCRNGQWSEPPKCLHPCVISREIMENYNIALRWTAKQKLYSRTGESVEFVCKRGYRLSSRSHTLRTTCWDGKLEYPTCAKR
– | – | – | 130 | 956 | 14 | 39 | CFH-Neu (neutral variant of full-length CFH, V62-Y402-D936) (other, also called Neutral (Neu)) EDCNELPPRRNTEILTGSWSDQTYPEGTQAIYKCRPGYRSLGNVIMVCRKGEWVALNPLRKCQKRPCGHPGDTPFGTFTLTGGNVFEYGVKAVYTCNEGYQLLGEINYRECDTDGWTNDIPICEVVKCLPVTAPENGKIVSSAMEPDREYHFGQAVRFVCNSGYKIEGDEEMHCSDDGFWSKEKPKCVEISCKSPDVINGSPISQKIIYKENERFQYKCNMGYEYSERGDAVCTESGWRPLPSCEEKSCDNPYIPNGDYSPLRIKHRTGDEITYQCRNGFYPATRGNTAKCTSTGWIPAPRCTLKPCDYPDIKHGGLYHENMRRPYFPVAVGKYYSYYCDEHFETPSGSYWDHIHCTQDGWSPAVPCLRKCYFPYLENGYNQNYGRKFVQGKSIDVACHPGYALPKAQTTVTCMENGWSPTPRCIRVKTCSKSSIDIENGFISESQYTYALKEKAKYQCKLGYVTADGETSGSITCGKDGWSAQPTCIKSCDIPVFMNARTKNDFTWFKLNDTLDYECHDGYESNTGSTTGSIVCGYNGWSDLPICYERECELPKIDVHLVPDRKKDQYKVGEVLKFSCKPGFTIVGPNSVQCYHFGLSPDLPICKEQVQSCGPPPELLNGNVKEKTKEEYGHSEVVEYYCNPRFLMKGPNKIQCVDGEWTTLPVCIVEESTCGDIPELEHGWAQLSSPPYYYGDSVEFNCSESFTMIGHRSITCIHGVWTQLPQCVAIDKLKKCKSSNLIILEEHLKNKKEFDHNSNIRYRCRGKEGWIHTVCINGRWDPEVNCSMAQIQLCPPPPQIPNSHNMTTTLNYRDGEKVSVLCQENYLIQEGEEITCKDGRWQSIPLCVEKIPCSQPPQIEHGTINSSRSSQESYAHGTKLSYTCEGGFRISEENETTCYMGKWSSPPQCEGLPCKSPPDISHGVVAHMSDSYQYGEEVTYKCFEGFGIDGPAIAKCLGEKWSHPPSCIKTDCLSLPSFENAIPMGEKKDVYKAGEQVTYTCATYYKMDGASNVTCINSRWTGRPTCRDTSCVNPPTVQNAYIVSRQMSKYPSGERVRYQCRSPYEMFGDEEVMCLNGNWTEPPQCKDSTGKCGPPPPIDNGDITSFPLSVYAPASSVEYQCQNLYQLEGNKRITCRNGQWSEPPKCLHPCVISREIMENYNIALRWTAKQKLYSRTGESVEFVCKRGYRLSSRSHTLRTTCWDGKLEYPTCAKR
